Source: the supplement of paper PMC5998384

Legend:
HeLa Kyoto [1] = assay: solubility in G1/S (NP-40 vs SDS abundance) (log2 ratio); higher = more soluble; conditions: cell cycle stage: G1/S
HeLa Kyoto [2] = assay: solubility change mitosis vs G1/S (difference of NP-40 vs SDS log2 ratios) (log2 ratio difference); higher = more soluble in mitosis
HeLa Kyoto [3] = assay: melting temperature (median over replicates), in situ; higher = more thermally stable
HeLa Kyoto [4] = assay: thermal stability score vs G1/S (z-score of summed log2 fold changes over temperatures); higher = more thermally stable than in G1/S
[5] = cell cycle stage: early G1 (4.5 h after nocodazole release)
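For melting temperature (median over replicates), in situ in this document: HeLa Kyoto cells synchronized by double thymidine or nocodazole block, proteins quantified by TMT10plex mass spectrometry, three independent biological replicates.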
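For solubility change mitosis vs G1/S (difference of NP-40 vs SDS log2 ratios) in this document: synchronized HeLa Kyoto cells (double thymidine block for G1/S, nocodazole release for mitosis), protein amounts in NP-40 versus SDS lysates quantified by mass spectrometry, three biological replicates.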
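For solubility in G1/S (NP-40 vs SDS abundance) in this document: HeLa Kyoto cells arrested at G1/S by double thymidine block, proteins quantified by TMT10plex mass spectrometry in mild NP-40 versus SDS extracts, three biological replicates.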
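For thermal stability score vs G1/S (z-score of summed log2 fold changes over temperatures) in this document: synchronized HeLa Kyoto cells, proteins quantified by TMT10plex mass spectrometry, three biological replicates, mitosis taken 0.5 h after nocodazole release, G1/S directly after double thymidine block.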

Substance | solubility in G1/S (log2) (HeLa Kyoto [1]) | solubility change mitosis (log2) (HeLa Kyoto [2]) | melting temperature (HeLa Kyoto [3]; cell cycle stage: G1/S) [°C] | melting temperature (HeLa Kyoto [3]; cell cycle stage: mitosis) [°C] | thermal stability score (HeLa Kyoto [4]; [5]) | thermal stability score (HeLa Kyoto [4]; cell cycle stage: mitosis)
MQKIKSLMTRQGLKSPQESLSDLGAIESLRVPGKEEFRELREQPSDPQAEQELINSIEQVYFSVDSFDIVKYELEKLPPVLNLQELEAYRDKLKQQQAAVSKKVADLILEKQPAYVKELERVTSLQTGLQLAAVICTNGRRHLNIAKEGFTQASLGLLANQRKRQLLIGLLKSLRTIKTLQRTDVRLSEMLEEEDYPGAIQLCLECQKAASTFKHYSCISELNSKLQDTLEQIEEQLDVALSKICKNFDINHYTKVQQAYRLLGKTQTAMDQLHMHFTQAIHNTVFQVVLGYVELCAGNTDTKFQKLQYKDLCTHVTPDSYIPCLADLCKALWEVMLSYYRTMEWHEKHDNEDTASASEGSNMIGTEETNFDRGYIKKKLEHGLTRIWQDVQLKVKTYLLGTDLSIFKYDDFIFVLDIISRLMQVGEEFCGSKSEVLQESIRKQSVNYFKNYHRTRLDELRMFLENETWELCPVKSNFSILQLHEFKFMEQSRSPSVSPSKQPVSTSSKTVTLFEQYCSGGNPFEIQANHKDEETEDVLASNGYESDEQEKSAYQEYDSDSDVPEELKRDYVDEQTGDGPVKSVSRETLKSRKKSDYSLNKVNAPILTNTTLNVIRLVGKYMQMMNILKPIAFDVIHFMSQLFDYYLYAIYTFFGRNDSLESTGLGLSSSRLRTTLNRIQESLIDLEVSADPTATLTAAEERKEKVPSPHLSHLVVLTSGDTLYGLAERVVATESLVFLAEQFEFLQPHLDAVMPAVKKPFLQQFYSQTVSTASELRKPIYWIVAGKALDYEQMLLLMANVKWDVKEIMSQHNIYVDALLKEFEQFNRRLNEVSKRVRIPLPVSNILWEHCIRLANRTIVEGYANVKKCSNEGRALMQLDFQQFLMKLEKLTDIRPIPDKEFVETYIKAYYLTENDMERWIKEHREYSTKQLTNLVNVCLGSHINKKARQKLLAAIDDIDRPKR [VPS50] | -0.0656 | -0.108 | 50.8 | 49.6 | 0.281 | 0.511
MSDSGEQNYGERESRSASRSGSAHGSGKSARHTPARSRSKEDSRRSRSKSRSRSESRSRSRRSSRRHYTRSRSRSRSHRRSRSRSYSRDYRRRHSHSHSPMSTRRRHVGNRANPDPNCCLGVFGLSLYTTERDLREVFSKYGPIADVSIVYDQQSRRSRGFAFVYFENVDDAKEAKERANGMELDGRRIRVDFSITKRPHTPTPGIYMGRPTYGSSRRRDYYDRGYDRGYDDRDYYSRSYRGGGGGGGGWRAAQDRDQIYRRRSPSPYYSRGGYRSRSRSRSYSPRRY [TRA2B] | -1.17 | 0.613 | 49.9 | 49.8 | -1.69 | -4.47
MAGASVKVAVRVRPFNARETSQDAKCVVSMQGNTTSIINPKQSKDAPKSFTFDYSYWSHTSTEDPQFASQQQVYRDIGEEMLLHAFEGYNVCIFAYGQTGAGKSYTMMGRQEPGQQGIVPQLCEDLFSRVSENQSAQLSYSVEVSYMEIYCERVRDLLNPKSRGSLRVREHPILGPYVQDLSKLAVTSYADIADLMDCGNKARTVAATNMNETSSRSHAVFTIVFTQRCHDQLTGLDSEKVSKISLVDLAGSERADSSGARGMRLKEGANINKSLTTLGKVISALADMQSKKRKSDFIPYRDSVLTWLLKENLGGNSRTAMIAALSPADINYEETLSTLRYADRTKQIRCNAIINEDPNARLIRELQEEVARLRELLMAQGLSASALEGLKTEEGSVRGALPAVSSPPAPVSPSSPTTHNGELEPSFSPNTESQIGPEEAMERLQETEKIIAELNETWEEKLRKTEALRMEREALLAEMGVAVREDGGTVGVFSPKKTPHLVNLNEDPLMSECLLYHIKDGVTRVGQVDMDIKLTGQFIREQHCLFRSIPQPDGEVVVTLEPCEGAETYVNGKLVTEPLVLKSGNRIVMGKNHVFRFNHPEQARLERERGVPPPPGPPSEPVDWNFAQKELLEQQGIDIKLEMEKRLQDLENQYRKEKEEADLLLEQQRLYADSDSGDDSDKRSCEESWRLISSLREQLPPTTVQTIVKRCGLPSSGKRRAPRRVYQIPQRRRLQGKDPRWATMADLKMQAVKEICYEVALADFRHGRAEIEALAALKMRELCRTYGKPDGPGDAWRAVARDVWDTVGEEEGGGAGSGGGSEEGARGAEVEDLRAHIDKLTGILQEVKLQNSSKDRELQALRDRMLRMERVIPLAQDHEDENEEGGEVPWAPPEGSEAAEEAAPSDRMPSARPPSPPLSSWERVSRLMEEDPAFRRGRLRWLKQEQLRLQGLQGSGGRGGGLRRPPARFVPPHDCKLRFPFKSNPQHRESWPGMGSGEAPTPLQPPEEVTPHPATPARRPPSPRRSHHPRRNSLDGGGRSRGAGSAQPEPQHFQPKKHNSYPQPPQPYPAQRPPGPRYPPYTTPPRMRRQRSAPDLKESGAAV [KIF1C] | -0.0137 | -0.0384 | 48.5 | 50.2 | 0.369 | 0.754
MDAGFFRGTSAEQDNRFSNKQKKLLKQLKFAECLEKKVDMSKVNLEVIKPWITKRVTEILGFEDDVVIEFIFNQLEVKNPDSKMMQINLTGFLNGKNAREFMGELWPLLLSAQENIAGIPSAFLELKKEEIKQRQIEQEKLASMKKQDEDKDKRDKEEKESSREKRERSRSPRRRKSRSPSPRRRSSPVRRERKRSHSRSPRHRTKSRSPSPAPEKKEKTPELPEPSVKVKEPSVQEATSTSDILKVPKPEPIPEPKEPSPEKNSKKEKEKEKTRPRSRSRSKSRSRTRSRSPSHTRPRRRHRSRSRSYSPRRRPSPRRRPSPRRRTPPRRMPPPPRHRRSRSPVRRRRRSSASLSGSSSSSSSSRSRSPPKKPPKRTSSPPRKTRRLSPSASPPRRRHRPSPPATPPPKTRHSPTPQQSNRTRKSRVSVSPGRTSGKVTKHKGTEKRESPSPAPKPRKVELSESEEDKGGKMAAADSVQQRRQYRRQNQQSSSDSGSSSSSEDERPKRSHVKNGEVGRRRRHSPSRSASPSPRKRQKETSPRGRRRRSPSPPPTRRRRSPSPAPPPRRRRTPTPPPRRRTPSPPPRRRSPSPRRYSPPIQRRYSPSPPPKRRTASPPPPPKRRASPSPPPKRRVSHSPPPKQRSSPVTKRRSPSLSSKHRKGSSPSRSTREARSPQPNKRHSPSPRPRAPQTSSSPPPVRRGASSSPQRRQSPSPSTRPIRRVSRTPEPKKIKKAASPSPQSVRRVSSSRSVSGSPEPAAKKPPAPPSPVQSQSPSTNWSPAVPVKKAKSPTPSPSPPRNSDQEGGGKKKKKKKDKKHKKDKKHKKHKKHKKEKAVAAAAAAAVTPAAIAAATTTLAQEEPVAAPEPKKETESEAEDNLDDLEKHLREKALRSMRKAQVSPQS [SRRM1] | -1.06 | 1.02 | 51.3 | 50 | -6.13 | -6.36
MSESLVVCDVAEDLVEKLRKFRFRKETNNAAIIMKIDKDKRLVVLDEELEGISPDELKDELPERQPRFIVYSYKYQHDDGRVSYPLCFIFSSPVGCKPEQQMMYAGSKNKLVQTAELTKVFEIRNTEDLTEEWLREKLGFFH [GMFB] | 0.3 | 0.123 | 55.4 | 55.6 | -2.8 | -3.58
SMARCA2 | -0.129 | -0.051 | 47.8 | 49.7 | 2.43 | 4.33
MLERRCRGPLAMGLAQPRLLSGPSQESPQTLGKESRGLRQQGTSVAQSGAQAPGRAHRCAHCRRHFPGWVALWLHTRRCQARLPLPCPECGRRFRHAPFLALHRQVHAAATPDLGFACHLCGQSFRGWVALVLHLRAHSAAKRPIACPKCERRFWRRKQLRAHLRRCHPPAPEARPFICGNCGRSFAQWDQLVAHKRVHVAEALEEAAAKALGPRPRGRPAVTAPRPGGDAVDRPFQCACCGKRFRHKPNLIAHRRVHTGERPHQCPECGKRFTNKPYLTSHRRIHTGEKPYPCKECGRRFRHKPNLLSHSKIHKRSEGSAQAAPGPGSPQLPAGPQESAAEPTPAVPLKPAQEPPPGAPPEHPQDPIEAPPSLYSCDDCGRSFRLERFLRAHQRQHTGERPFTCAECGKNFGKKTHLVAHSRVHSGERPFACEECGRRFSQGSHLAAHRRDHAPDRPFVCPDCGKAFRHKPYLAAHRRIHTGEKPYVCPDCGKAFSQKSNLVSHRRIHTGERPYACPDCDRSFSQKSNLITHRKSHIRDGAFCCAICGQTFDDEERLLAHQKKHDV [REPIN1] | -0.0762 | -0.0234 | 54.4 | 52.9 | -0.836 | -2.05
MSLEQEEETQPGRLLGRRDAVPAFIEPNVRFWITERQSFIRRFLQWTELLDPTNVFISVESIENSRQLLCTNEDVSSPASADQRIQEAWKRSLATVHPDSSNLIPKLFRPAAFLPFMAPTVFLSMTPLKGIKSVILPQVFLCAYMAAFNSINGNRSYTCKPLERSLLMAGAVASSTFLGVIPQFVQMKYGLTGPWIKRLLPVIFLVQASGMNVYMSRSLESIKGIAVMDKEGNVLGHSRIAGTKAVRETLASRIVLFGTSALIPEVFTYFFKRTQYFRKNPGSLWILKLSCTVLAMGLMVPFSFSIFPQIGQIQYCSLEEKIQSPTEETEIFYHRGV [SFXN4] | -0.194 | -0.195 | 53.9 | 54.8 | 0.0593 | -1.77
TPP2 | -0.0302 | -0.106 | 54.6 | 54.2 | -1.14 | -1.13
MSSLAVRDPAMDRSLRSVFVGNIPYEATEEQLKDIFSEVGSVVSFRLVYDRETGKPKGYGFCEYQDQETALSAMRNLNGREFSGRALRVDNAASEKNKEELKSLGPAAPIIDSPYGDPIDPEDAPESITRAVASLPPEQMFELMKQMKLCVQNSHQEARNMLLQNPQLAYALLQAQVVMRIMDPEIALKILHRKIHVTPLIPGKSQSVSVSGPGPGPGPGLCPGPNVLLNQQNPPAPQPQHLARRPVKDIPPLMQTPIQGGIPAPGPIPAAVPGAGPGSLTPGGAMQPQLGMPGVGPVPLERGQVQMSDPRAPIPRGPVTPGGLPPRGLLGDAPNDPRGGTLLSVTGEVEPRGYLGPPHQGPPMHHASGHDTRGPSSHEMRGGPLGDPRLLIGEPRGPMIDQRGLPMDGRGGRDSRAMETRAMETEVLETRVMERRGMETCAMETRGMEARGMDARGLEMRGPVPSSRGPMTGGIQGPGPINIGAGGPPQGPRQVPGISGVGNPGAGMQGTGIQGTGMQGAGIQGGGMQGAGIQGVSIQGGGIQGGGIQGASKQGGSQPSSFSPGQSQVTPQDQEKAALIMQVLQLTADQIAMLPPEQRQSILILKEQIQKSTGAS [CSTF2T] | -0.00517 | 0.114 | 52.6 | 51.9 | -0.131 | 0.0128
EP300 | -0.0947 | -0.0909 | 50.8 | 51.6 | -0.227 | 1.93
MFSFNMFDHPIPRVFQNRFSTQYRCFSVSMLAGPNDRSDVEKGGKIIMPPSALDQLSRLNITYPMLFKLTNKNSDRMTHCGVLEFVADEGICYLPHWMMQNLLLEEGGLVQVESVNLQVATYSKFQPQSPDFLDITNPKAVLENALRNFACLTTGDVIAINYNEKIYELRVMETKPDKAVSIIECDMNVDFDAPLGYKEPERQVQHEESTEGEADHSGYAGELGFRAFSGSGNRLDGKKKGVEPSPSPIKPGDIKRGIPNYEFKLGKITFIRNSRPLVKKVEEDEAGGRFVAFSGEGQSLRKKGRKP [UFD1L] | 0.0333 | -0.123 | 54.2 | 54.3 | 0.171 | -0.639
MMLGTEGGEGFVVKVRGLPWSCSADEVQRFFSDCKIQNGAQGIRFIYTREGRPSGEAFVELESEDEVKLALKKDRETMGHRYVEVFKSNNVEMDWVLKHTGPNSPDTANDGFVRLRGLPFGCSKEEIVQFFSGLEIVPNGITLPVDFQGRSTGEAFVQFASQEIAEKALKKHKERIGHRYIEIFKSSRAEVRTHYDPPRKLMAMQRPGPYDRPGAGRGYNSIGRGAGFERMRRGAYGGGYGGYDDYNGYNDGYGFGSDRFGRDLNYCFSGMSDHRYGDGGSTFQSTTGHCVHMRGLPYRATENDIYNFFSPLNPVRVHIEIGPDGRVTGEADVEFATHEDAVAAMSKDKANMQHRYVELFLNSTAGASGGAYEHRYVELFLNSTAGASGGAYGSQMMGGMGLSNQSSYGGPASQQLSGGYGGGYGGQSSMSGYDQVLQENSSDFQSNIA [HNRNPH1] | 0.047 | -0.00635 | 47.5 | 48.2 | 3.39 | 8.7
